Experimental findings from patent US20230357431A1 are described below.

Test [1] concerns the target VL1VH3-CD8ATD-CD137CSD-CD3zSSD fusion (anti-P329G chimeric antigen receptor, VLVH orientation).
The target in test [2] is VH2VL1-CD8ATD-CD137CSD-CD3zSSD fusion (anti-P329G chimeric antigen receptor).
In test [3] the target is VH3VL1-CD8ATD-CD137CSD-CD3zSSD fusion (anti-P329G chimeric antigen receptor).
Test [4] deals with VL1VH3-CD8ATD-CD137CSD-CD3zSSD fusion (anti-P329G chimeric antigen receptor, VLVH orientation). This is another data set of the same source.
Sequence of VL1VH3-CD8ATD-CD137CSD-CD3zSSD fusion (anti-P329G chimeric antigen receptor, VLVH orientation) (chain, as listed by the source P329G P329G): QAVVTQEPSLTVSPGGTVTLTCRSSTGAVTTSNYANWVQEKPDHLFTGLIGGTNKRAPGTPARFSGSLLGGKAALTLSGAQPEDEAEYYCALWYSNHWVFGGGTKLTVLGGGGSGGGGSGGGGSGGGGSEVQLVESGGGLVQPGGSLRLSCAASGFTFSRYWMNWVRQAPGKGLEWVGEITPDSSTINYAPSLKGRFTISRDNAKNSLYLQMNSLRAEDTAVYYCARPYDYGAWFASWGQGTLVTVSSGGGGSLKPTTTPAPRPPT
Test [5] deals with VH2VL1-CD8ATD-CD137CSD-CD3zSSD fusion (anti-P329G chimeric antigen receptor). The source holds these as a separate data set.
Test [6] has as its target VH3VL1-CD8ATD-CD137CSD-CD3zSSD fusion (anti-P329G chimeric antigen receptor). The source holds these as a separate data set.
Test [7] concerns the target VH1VL1-CD8ATD-CD137CSD-CD3zSSD fusion (anti-P329G chimeric antigen receptor).
For test [8], the target named is VL1VH3-CD8ATD-CD137CSD-CD3zSSD fusion (anti-P329G chimeric antigen receptor, VLVH orientation). This is another data set of the same source.
Test [9] addresses VH1VL1-CD8ATD-CD137CSD-CD3zSSD fusion (anti-P329G chimeric antigen receptor). The source holds these as a separate data set.
The target of test [10] is VL1VH3-CD8ATD-CD137CSD-CD3zSSD fusion (anti-P329G chimeric antigen receptor, VLVH orientation). This is another data set of the same source.
Test [11] has as its target VH2VL1-CD8ATD-CD137CSD-CD3zSSD fusion (anti-P329G chimeric antigen receptor). This is another data set of the same source.
In test [12] the target is VH3VL1-CD8ATD-CD137CSD-CD3zSSD fusion (anti-P329G chimeric antigen receptor). The source holds these as a separate data set.
Test [13] deals with VH1VL1-CD8ATD-CD137CSD-CD3zSSD fusion (anti-P329G chimeric antigen receptor). The source holds these as a separate data set.
Sequence of VH1VL1-CD8ATD-CD137CSD-CD3zSSD fusion (anti-P329G chimeric antigen receptor) (chain, as listed by the source P329G P329G): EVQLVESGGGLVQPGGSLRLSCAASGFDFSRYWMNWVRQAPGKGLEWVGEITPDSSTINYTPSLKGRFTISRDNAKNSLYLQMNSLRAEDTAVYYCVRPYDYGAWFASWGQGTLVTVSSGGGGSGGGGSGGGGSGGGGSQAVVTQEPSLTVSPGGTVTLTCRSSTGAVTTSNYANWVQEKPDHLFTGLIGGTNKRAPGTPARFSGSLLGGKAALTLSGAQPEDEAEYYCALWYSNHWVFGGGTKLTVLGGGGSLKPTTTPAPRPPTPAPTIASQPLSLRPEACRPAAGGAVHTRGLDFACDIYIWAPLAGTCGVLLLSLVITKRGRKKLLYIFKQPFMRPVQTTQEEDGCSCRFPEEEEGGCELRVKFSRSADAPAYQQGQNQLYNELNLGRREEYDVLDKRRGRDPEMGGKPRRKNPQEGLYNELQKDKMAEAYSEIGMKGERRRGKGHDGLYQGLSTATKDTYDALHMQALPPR
The target of test [14] is VL1VH3-CD8ATD-CD137CSD-CD3zSSD fusion (anti-P329G chimeric antigen receptor, VLVH orientation). The source holds these as a separate data set.
The target of test [15] is VH2VL1-CD8ATD-CD137CSD-CD3zSSD fusion (anti-P329G chimeric antigen receptor). This is another data set of the same source.
Test [16] has as its target VH3VL1-CD8ATD-CD137CSD-CD3zSSD fusion (anti-P329G chimeric antigen receptor). This is another data set of the same source.
In test [17] the target is VH1VL1-CD8ATD-CD137CSD-CD3zSSD fusion (anti-P329G chimeric antigen receptor). The source holds these as a separate data set.

Like-named read-outs stand apart in the source and are kept apart here.

Sequence of VH3VL1-CD8ATD-CD137CSD-CD3zSSD fusion (anti-P329G chimeric antigen receptor) (chain, as listed by the source P329G P329G): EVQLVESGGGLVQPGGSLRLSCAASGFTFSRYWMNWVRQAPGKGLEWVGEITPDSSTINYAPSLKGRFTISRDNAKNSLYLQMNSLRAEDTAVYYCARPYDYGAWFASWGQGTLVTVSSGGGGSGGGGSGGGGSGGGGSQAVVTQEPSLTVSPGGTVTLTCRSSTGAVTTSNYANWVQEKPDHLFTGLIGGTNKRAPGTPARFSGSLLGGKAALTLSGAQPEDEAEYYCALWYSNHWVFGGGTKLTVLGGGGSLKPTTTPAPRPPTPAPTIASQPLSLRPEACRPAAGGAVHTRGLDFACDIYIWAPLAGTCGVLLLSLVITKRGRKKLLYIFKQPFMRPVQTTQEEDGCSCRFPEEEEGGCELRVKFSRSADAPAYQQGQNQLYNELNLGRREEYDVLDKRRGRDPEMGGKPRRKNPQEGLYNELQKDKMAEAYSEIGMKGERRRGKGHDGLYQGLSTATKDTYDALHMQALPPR
Sequence of VH2VL1-CD8ATD-CD137CSD-CD3zSSD fusion (anti-P329G chimeric antigen receptor) (chain, as listed by the source P329G P329G): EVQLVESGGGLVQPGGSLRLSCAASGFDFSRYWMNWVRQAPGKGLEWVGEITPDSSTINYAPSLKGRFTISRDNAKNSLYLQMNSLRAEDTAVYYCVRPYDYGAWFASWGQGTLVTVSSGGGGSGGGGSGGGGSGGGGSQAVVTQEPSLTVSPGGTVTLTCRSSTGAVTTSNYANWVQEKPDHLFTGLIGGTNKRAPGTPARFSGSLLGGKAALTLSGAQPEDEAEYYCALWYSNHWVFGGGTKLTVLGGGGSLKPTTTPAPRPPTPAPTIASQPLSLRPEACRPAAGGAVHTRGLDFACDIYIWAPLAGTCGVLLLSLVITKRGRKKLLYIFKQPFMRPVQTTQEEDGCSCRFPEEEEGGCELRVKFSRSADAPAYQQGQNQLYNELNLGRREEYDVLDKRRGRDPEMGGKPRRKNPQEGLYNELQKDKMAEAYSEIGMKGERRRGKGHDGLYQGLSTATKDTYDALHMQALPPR

In test [1], DP47 P329G LALA (antibody) returned an EC50, Jurkat NFAT luciferase reporter (RLU/s), WSUDLCL2 target cells 5:1, non-targeting antibody; the curve stays at about 60 to 110 RLU/s (no activation), so the fitted value has no meaning of 7420 pM. Besides, in test [2], the EC50, Jurkat NFAT luciferase reporter (RLU/s), WSUDLCL2 target cells 5:1, non-targeting antibody; the curve stays at about 60 to 90 RLU/s (no activation), so the fitted value has no meaning turned out to be 293 pM. The EC50, Jurkat NFAT luciferase reporter (RLU/s), WSUDLCL2 target cells 5:1, non-targeting antibody; flat at about 90 RLU/s with a small rise to about 190 RLU/s at the last point, no plateau in [3] is 43200 pM.

For the substance “anti-CD20 (GA101) D246A P329G IgG1 (antibody)”, the EC50, Jurkat NFAT luciferase reporter (RLU/s), WSUDLCL2 target cells 5:1; sigmoid curve with upper plateau in [4] was determined as 6.19 pM; in test [5] it was 10.4 pM; in test [6], 5.82 pM; in [7] it was 8.14 pM.

Consider anti-CD20 (GA101) LALA IgG1 (antibody), for which the EC50, Jurkat NFAT luciferase reporter (RLU/s), WSUDLCL2 target cells 5:1; the curve is flat (no activation), so the fitted value has no meaning stood at 0.000234 pM in [8] and 0.0485 pM in [9].

As to “anti-CD20 (GA101) P329G LALA IgG1 (antibody)”, the EC50, Jurkat NFAT luciferase reporter (RLU/s), WSUDLCL2 target cells 5:1; sigmoid curve with upper plateau is 6.58 pM in test [10], 6.93 pM in [11], 7.57 pM in [12] and 8.1 pM in [13].

On to “anti-CD20 (GA101) wild type IgG1 (antibody)”, for which the EC50, Jurkat NFAT luciferase reporter (RLU/s), WSUDLCL2 target cells 5:1; the curve is flat (no activation), so the fitted value has no meaning worked out at 78.3 pM in test [14], 0.000119 pM in [15], 85 pM in [16] and 2.19 pM in test [17].
